Measurements reported in IntAct's records for PubMed 32873725.

B1: Phospholamban (Mus musculus), P61014 (parent)
chain: MEKVQYLTRSAIRRASTIEMPQQARQNLQNLFINFCLILICLLLICIIVMLL

Variants of: B1
Conditions: with kcc2d_human CAMK2D

Row | effect of a mutation on the interaction | Variant
1 | with no effect | MEKVQYLTRSAIRRAATIEMPQQARQNLQNLFINFCLILICLLLICIIVMLL [S16A]
